Assay [1] has as its target T1, cynomolgus monkey NRP2 on transfected Expi293 cells (cynomolgus monkey).
T1 construct: whole, on cells; Plasmid bought from Origene; transient transfection; also called Cyno NRP2
The experiment in a line: flow cytometry on Cyno NRP2-transfected Expi293 cells. How it is done:
Binding of a-NRP2 to cynomolgus monkey NRP2-transfected Expi293 cells. Cynomolgus monkey (cyno) NRP2-transfected Expi293 cells were collected by centrifugation at 300 g for 5 minutes, and washed twice by DPBS (with calcium and magnesium, ThermoFisher Cat #14040133).
Washed cells were added to a 96-well V-bottom plate (ThermoFisher Cat #1424572) at 100,000 cells/well in 50 μL of DPBS added with Zombie Violet viability stain (Biolegend Cat #423114, diluted at 1:500). From this step on, cells were protected from light. Cells were kept at room temperature for 10 min and pelleted down at 300 g for 5 minutes at 4° C. Supernatants containing Zombie Violet were discarded, and without washing, 30 uL of antibodies diluted in the flow wash buffer (FWB, DPBS plus 2% FBS and 0.1% sodium azide to inhibit receptor internalization) were added to the cells. For a-NRP2 staining on Cyno NRP2-transfected Expi293 cells, in-house human anti-NRP2 antibodies were tested at final concentrations of 0.006-100 nM at 4-fold dilutions. For each test, NRP2 over-expression on the cell surface was validated by a-NRP2 staining (10 μg/mL R&D #AF567 a-NRP2) in separate wells. Binding was allowed to proceed on ice for 40-60 minutes. Cells were then pelleted at 300 g for 5 minutes at 4° C., supernatants removed, and cells washed twice by adding 150 μL of FWB and centrifuging the cells again in the same conditions. To detect a-NRP2 binding on the cell surface, Cy3-conjugated goat anti-human IgG Fc or AF647-conjugated donkey anti-goat IgG (Jackson ImmunoResearch Cat #109165098 & 705605147) was added to the cells at a final concentration of 3 μg/mL in 30 μL of FWB. After 30-40 minutes of incubation on ice, cells were pelleted at 300 g for 5 minutes at 4° C. and supernatants removed, and the cells were washed twice as described previously. […] Cells were then analyzed on FlowJo analysis software by excluding dead cells and gating singlets.
The EC₅₀ of three anti-NRP2 antibodies, each against a distinct domain of NRP2, were measured for binding to Cyno NRP2-transfected Expi293 cells (see Table E2 and FIG. 4).
(A flow cytometer gives signals particle by particle.)

In assay [2] the target is T2, human NRP2 variant 2 (hNRP2), untagged, on Expi293 cells (Human, UniProt O60462 23-931).
T2 construct: Transcript NM_003872 / NP_003863.2; also called Expi293-hNRP2 clonal cells; Human NRP2a (version 2)
T2 sequence: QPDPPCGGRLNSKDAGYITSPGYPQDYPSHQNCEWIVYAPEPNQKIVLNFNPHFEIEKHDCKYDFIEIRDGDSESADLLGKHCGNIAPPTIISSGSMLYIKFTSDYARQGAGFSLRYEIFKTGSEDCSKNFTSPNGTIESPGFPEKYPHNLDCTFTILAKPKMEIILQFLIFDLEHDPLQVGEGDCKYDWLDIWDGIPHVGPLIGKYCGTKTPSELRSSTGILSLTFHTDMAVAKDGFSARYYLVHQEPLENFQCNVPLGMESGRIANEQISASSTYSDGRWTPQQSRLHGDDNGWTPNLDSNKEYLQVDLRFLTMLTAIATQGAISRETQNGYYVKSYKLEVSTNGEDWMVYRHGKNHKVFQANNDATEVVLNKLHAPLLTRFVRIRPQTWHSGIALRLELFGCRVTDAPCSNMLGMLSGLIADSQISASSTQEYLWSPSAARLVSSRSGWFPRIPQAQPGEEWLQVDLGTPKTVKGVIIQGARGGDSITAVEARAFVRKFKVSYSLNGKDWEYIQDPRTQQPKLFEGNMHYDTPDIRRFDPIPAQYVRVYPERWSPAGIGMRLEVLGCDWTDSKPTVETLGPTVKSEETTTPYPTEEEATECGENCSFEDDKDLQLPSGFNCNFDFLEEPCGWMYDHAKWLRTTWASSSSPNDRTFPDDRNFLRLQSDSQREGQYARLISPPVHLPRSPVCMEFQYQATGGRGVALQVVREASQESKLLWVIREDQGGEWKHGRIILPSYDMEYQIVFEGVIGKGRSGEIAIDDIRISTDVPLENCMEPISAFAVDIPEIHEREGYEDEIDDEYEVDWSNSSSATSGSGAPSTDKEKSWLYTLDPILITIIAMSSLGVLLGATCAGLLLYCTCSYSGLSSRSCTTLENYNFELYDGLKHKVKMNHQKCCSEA
The experiment in a line: flow cytometry on Expi293-hNRP2 clonal cells. The protocol:
Expi293-hNRP2 clonal cells were collected by centrifugation at 300 g for 5 minutes, and washed twice by DPBS (with calcium and magnesium, ThermoFisher Cat #14040133). Washed cells were added to a 96-well V-bottom plate (ThermoFisher Cat #1424572) at 100,000 cells/well in […] of DPBS added with Zombie Violet viability stain (Biolegend Cat #423114, diluted at 1:500). From this step on, cells were protected from light. Cells were kept at room temperature for 10 min and pelleted down at 300 g for 5 minutes at 4° C. Supernatants containing Zombie Violet were discarded, and without washing, 30 uL of antibodies diluted in the flow wash buffer (FWB, DPBS plus 2% FBS and 0.1% sodium azide to inhibit receptor internalization) were added to the cells. For anti-NRP2 antibody staining on Expi293-hNRP2 clonal cells, in-house human anti-NRP2 antibodies were tested at final concentrations of 0.006-100 nM at 4-fold dilutions. […] Binding was allowed to proceed on ice for 40-60 minutes. Cells were then pelleted at 300 g for 5 minutes at 4° C., supernatants removed, and cells washed twice by adding 150 μL of FWB and centrifuging the cells again in the same conditions. To detect a-NRP2 binding on the cell surface, Cy3-conjugated goat anti-human IgG Fc (Jackson ImmunoResearch Cat #109165098) was added to the cells at a final concentration of 3 μg/mL in 30 μL of FWB. After 30-40 minutes of incubation on ice, cells were pelleted at 300 g for 5 minutes at 4° C. and supernatants removed, and the cells were washed twice as described previously. Cells were then resuspended in FWB before acquisition on the Cytoflex. Gains were set based on staining controls. Cells were collected with typically more than 10,000 events. Cells were then analyzed on FlowJo analysis software by excluding dead cells and gating singlets. The statistical analysis was performed using GraphPad Prism. A four-parameter variable-slope curve was fitted to the data ([agonist] vs. response) using non-linear regression, and the EC₅₀ and r2 for each curve was determined.
The EC₅₀ of four anti-NRP2 antibodies directed against different domains of NRP2, were measured for binding to Expi293-hNRP2 clonal cells (see Table E1 and FIG. 3).

The target in assay [3] is T3, Cynomolgus NRP2 (aa23-854) with C-terminal Fc-tag (cynomolgus monkey).
T3 construct: range 23-854; sensorgrams fitted to a bivalent analyte model; also called Cynomolgus NRP2 antigen protein
The experiment in a line: SPR (ProteOn XPR36), antibody captured on anti-human Fab-kappa, cyno NRP2-Fc as analyte, bivalent analyte fit. The protocol: Anti-NRP2 antibody binding and affinity measurements. […] SPR experiments were conducted on a Bio-Rad ProteOn XPR36 Protein Interaction Array instrument. Biotinylated anti-human antibody (ThermoFisher Cat #7103302100) was immobilized on ProteOn NLC sensor chips. Anti-NRP2 antibodies were subsequently flowed over and captured by the anti-human antibody. Cynomolgus NRP2 antigen protein was flowed over the captured antibody at varying concentrations (150, 50, 16.67, 5.56, 1.85 nM). The sensor chip surface was regenerated between each analyte run to remove anti-NRP2 antibodies and NRP2 protein. Data was double referenced against a surface with no anti-NRP2 antibody captured (immobilized anti-human antibody only) and a buffer only blank. Affinity constants were derived by globally fitting sensograms to a bivalent analyte interaction model in the ProteOn manager software. For each anti-NRP2 antibody, data from the multiple NRP2 concentrations was fit as a single data set with dissociation rate constant (kd), association rate constant (kₐ) and Rₘₐₓ values as global parameters. The reported binding affinity is the equilibrium dissociation constant (KD) calculated from kd/kₐ. [0681] Running buffer: 50 mM HEPES, 300 mM NaCl, 5 mM CaCl₂, 0.005% Tween-20, pH 7.4 [0682] Immobilized antibody: CaptureSelect Human Fab-kappa Kinetics Biotin Conjugate, Thermo Fisher Cat #7103302100 [0683] Antigen: Cynomolgus NRP2 (aa23-854) with C-terminal Fc-tag [0684] Regeneration buffer: 10 mM glycine pH 2.0

The target of assay [4] is T2, human NRP2 variant 2 (hNRP2), untagged, …. Put plainly: flow cytometry as described for Table E1 (Expi293-hNRP2 cells); the cells for this surrogate are not said separately.

Substitutions are numbered along the chain they refer to.

Usually EC50 stands for the concentration that produces a half-maximal response.

B1: aNRP2-11v7 (antibody, V domains shown)
VH: QVQLVQSGAEVKKPGASVKVSCKASGYTFTSFGISWVRQAPGQGLEWIGEIYPRSGNTYYNENFKGRATMTADKSTSTAYMELRSLRSDDTAVYYCARSSGYYGSTPFPYWGQGTLVTVSS
VL: DIQMTQSPSSLSASVGDRVTITCRASQDISNYLNWYQQKPGKAVKLLIYYTSRLHSGVPSRFSGSGSGTDYTFTISSLQPEDIATYYCQQGNTLPWTFGGGTKVEIK
notes: also called aNRP22-11v7
On to B1, for which the figures for the concentration giving a half-maximal response (EC50) in assay [1] and in assay [2] were 5.7 nM and 6.3 nM, respectively. The Kd in assay [3] came out at 12 nM.

B2: aNRP2-28v2/4 (antibody, V domains shown)
VH: QSVKESEGGLFKPTDTLTLTCTVSGFSLSTYSISWVRQAPGNGLEWIGIIGDAGGIIYATWAKSRSTITRSTALNTVTLKMTGLTAADTATYFCARDGTAFDIWGPGTLVTVSS
VL: AYDMTQTPASVEVVVGGTVTIKCQASQSIYSKLGWYQQKPGQPPKLLIYRASTLASGVSSRFKGSGSGTEYTLTISGVQCDDAATYYCQQDYSYINVDNIFGGGTEVVVK
notes: Mouse surrogate antibody; also called aNRP2-28v4
Consider B2, for which the EC50 in assay [4] is 1.58 nM.

B3: aNRP2-10v13 (antibody, V domains shown)
VH: EVQLVQSGAEVKKPGATVKISCKVSGFNIKDYYVHWVQQAPGKGLEWMGRIDVHDDETKYAPKFQGRVTITADTSTDTAYMELSSLRSEDTAVYYCATPIYGAREAWFAYWGQGTLVTVSS
VL: DIQMTQSPSSLSASVGDRVTITCTASSSVSSSYLHWYQQKPGKAPKLLIYRTSNLASGVPSRFSGSGSGTDFTLTISSLQPEDFATYYCHQYYRSPPTFGGGTKVEIK
Turning to B3, the midpoint of the response in assay [2], the EC50, lay at 0.65 nM.

B4: aNRP2-14v9 (antibody, V domains shown)
VH: QLQLVESGGGVVQPGRSLRLSCTVSGFSLTSYGVHWVRQAPGKGLEWVGLIWSGGSTDYSPAFISRFTISEDNSKSTVYLQMNSLRAEDTAVYFCARNSYSSGYYAMDYWGQGTTVTVSS
VL: DIQLTQSPSFLSASVGDRVTITCKASQNVGHAVAWYQQKPGKAPKLLIYSASNRYTGVPSRFSGSGSGTEFTLTISSLQPEDFATYYCQQYSRYPPYTFGGGTKVEIK
With B4, the EC50 amounted to 2.8 nM in assay [1] and 1.2 nM in assay [2]. Further, in assay [3], the Kd came out at 0.017 nM.

B5: aNRP2-14v10 (antibody, V domains shown)
VH: B4 VH
VL: B4 VL with H31T, Y91R
Regarding B5, the 50% effective concentration (EC50) in assay [2] is 47.5 nM.

(Values after patent publication US20210163606A1 (ATYR PHARMA, published 2021).)
